# Numbering of substitutions follows the chain as printed.
# B1: MS-101 (antibody)
# VH: not shown
# VL: DFVLTQSPHSLSVTPGEPASISCKSSHSLIHGDRNNYLAWYVQKPGRSPQLLIYLASSRASGVPDRFSGSGSDKDFTLKISRVEAEDVGTYYCMQGRESPWTFGQGTKVDIKRTVAAPSVFIFPPSDEQLKSGTASVVCLLNNFYPREAKVQWKVDNALQSGNSQESVTEQDSKDSTYSLSSTLTLSKADYEKHKVYACEVTHQGLSSPVTKSFNRGEC
# B2: MS-102 (antibody)
# VH: not shown
# VL: B1 VL with P18S, D73G
# B3: MS-103 (antibody)
# VH: not shown
# VL: B1 VL with F2I, H9L, A85T
# B4: MS-104 (antibody)
# VH: not shown
# VL: B1 VL with F2I, H9L, P18S, D73G, A85T
# B5: MS-105 (antibody)
# VH: not shown
# VL: B1 VL with F2I, H9L, P18S
# B6: MS-106 (antibody)
# VH: not shown
# VL: B1 VL with F2I, D73G, A85T
# B7: MS-107 (antibody)
# VH: not shown
# VL: B1 VL with F2I
# B8: MS-108 (antibody)
# VH: not shown
# VL: B1 VL with F2I, P18S, D73G
# B9: MS-109 (antibody)
# VH: not shown
# VL: B1 VL with H9L, D73G, A85T
# B10: MS-110 (antibody)
# VH: not shown
# VL: B1 VL with H9L
# B11: MS-111 (antibody)
# VH: not shown
# VL: B1 VL with H9L, P18S, D73G
# B12: MS-112 (antibody)
# VH: not shown
# VL: B1 VL with D73G
# B13: MS-113 (antibody)
# VH: not shown
# VL: B1 VL with F2I, H9L, D73G, A85T
# B14: MS-114 (antibody)
# VH: not shown
# VL: B1 VL with F2I, H9L
# B15: MS-115 (antibody)
# VH: not shown
# VL: B1 VL with F2I, H9L, P18S, D73G
# B16: MS-116 (antibody)
# VH: not shown
# VL: B1 VL with F2I, D73G
# B17: MS-117 (antibody)
# VH: not shown
# VL: B1 VL with H9L, D73G
# B18: MS-118 (antibody)
# VH: not shown
# VL: B1 VL with F2I, H9L, D73G
# Target: HIV-1 pseudovirus 263-8 (envelope glycoprotein) (HIV-1)
# Test: cell-based or functional assay
Binder,neutralization IC50,neutralization IC80
B1,0.011 mg/L,0.041 mg/L
B2,0.007 mg/L,0.027 mg/L
B3,0.018 mg/L,0.07 mg/L
B4,0.014 mg/L,0.052 mg/L
B5,0.017 mg/L,0.062 mg/L
B6,0.011 mg/L,0.039 mg/L
B7,0.016 mg/L,0.055 mg/L
B8,0.012 mg/L,0.042 mg/L
B9,0.01 mg/L,0.033 mg/L
B10,0.01 mg/L,0.038 mg/L
B11,0.016 mg/L,0.045 mg/L
B12,0.013 mg/L,0.037 mg/L
B13,0.018 mg/L,0.052 mg/L
B14,0.018 mg/L,0.066 mg/L
B15,0.013 mg/L,0.037 mg/L
B16,0.011 mg/L,0.042 mg/L
B17,0.01 mg/L,0.029 mg/L
B18,0.011 mg/L,0.039 mg/L

# Target: HIV-1 pseudovirus AC10.0.29 (envelope glycoprotein) (HIV-1)
# Test: cell-based or functional assay
Binder,neutralization IC50,neutralization IC80
B1,0.045 mg/L,0.221 mg/L
B2,0.047 mg/L,0.168 mg/L
B3,0.07 mg/L,0.334 mg/L
B4,0.041 mg/L,0.208 mg/L
B5,0.051 mg/L,0.394 mg/L
B6,0.062 mg/L,0.299 mg/L
B7,0.079 mg/L,0.397 mg/L
B8,0.045 mg/L,0.216 mg/L
B9,0.04 mg/L,0.199 mg/L
B10,0.076 mg/L,0.285 mg/L
B11,0.061 mg/L,0.258 mg/L
B12,0.056 mg/L,0.262 mg/L
B13,0.052 mg/L,0.245 mg/L
B14,0.066 mg/L,0.313 mg/L
B15,0.049 mg/L,0.249 mg/L
B16,0.052 mg/L,0.258 mg/L
B17,0.051 mg/L,0.252 mg/L
B18,0.056 mg/L,0.273 mg/L

# Target: HIV-1 pseudovirus X1193_c1 (envelope glycoprotein) (HIV-1)
# Test: cell-based or functional assay
Binder,neutralization IC50,neutralization IC80
B1,0.098 mg/L,0.602 mg/L
B2,0.071 mg/L,0.412 mg/L
B3,0.112 mg/L,0.502 mg/L
B4,0.063 mg/L,0.388 mg/L
B5,0.067 mg/L,0.417 mg/L
B6,0.093 mg/L,0.394 mg/L
B7,0.13 mg/L,0.57 mg/L
B8,0.083 mg/L,0.545 mg/L
B9,0.073 mg/L,0.467 mg/L
B10,0.106 mg/L,0.677 mg/L
B11,0.109 mg/L,0.352 mg/L
B12,0.069 mg/L,0.293 mg/L
B13,0.098 mg/L,0.421 mg/L
B14,0.124 mg/L,0.404 mg/L
B15,0.08 mg/L,0.274 mg/L
B16,0.064 mg/L,0.222 mg/L
B17,0.064 mg/L,0.226 mg/L
B18,0.085 mg/L,0.287 mg/L

# Target: HIV-1 pseudovirus Ce1176_A3 (envelope glycoprotein) (HIV-1)
# Test: cell-based or functional assay
Binder,neutralization IC50,neutralization IC80
B1,0.043 mg/L,1.94 mg/L
B2,0.039 mg/L,2.75 mg/L
B3,0.172 mg/L,3.13 mg/L
B4,0.218 mg/L,6.11 mg/L
B5,0.172 mg/L,3.39 mg/L
B6,0.099 mg/L,3.43 mg/L
B7,0.147 mg/L,3.99 mg/L
B8,0.117 mg/L,3.84 mg/L
B9,0.078 mg/L,5.83 mg/L
B10,0.097 mg/L,2.5 mg/L
B11,0.082 mg/L,3.12 mg/L
B12,0.068 mg/L,2.03 mg/L
B13,0.182 mg/L,6.05 mg/L
B14,0.139 mg/L,7.39 mg/L
B15,0.18 mg/L,6.3 mg/L
B16,0.145 mg/L,3.12 mg/L
B17,0.113 mg/L,2.17 mg/L
B18,0.26 mg/L,8.12 mg/L

# Target: HIV-1 pseudovirus 6952.v1.c20 (envelope glycoprotein) (HIV-1)
# Test: cell-based or functional assay
Binder,neutralization IC50,neutralization IC80
B1,0.254 mg/L,3.51 mg/L
B2,0.162 mg/L,2.53 mg/L
B3,0.485 mg/L,5.95 mg/L
B4,0.457 mg/L,8.61 mg/L
B5,0.706 mg/L,9.49 mg/L
B6,0.216 mg/L,3.8 mg/L
B7,0.457 mg/L,8.87 mg/L
B8,0.323 mg/L,3.37 mg/L
B9,0.188 mg/L,1.74 mg/L
B10,0.195 mg/L,2.12 mg/L
B11,0.213 mg/L,2.1 mg/L
B12,0.16 mg/L,1.47 mg/L
B13,0.351 mg/L,5.03 mg/L
B14,0.146 mg/L,1.37 mg/L
B15,0.303 mg/L,4.7 mg/L
B16,0.341 mg/L,7.51 mg/L
B17,0.208 mg/L,3.84 mg/L
B18,0.392 mg/L,12.2 mg/L

# Target: HIV-1 pseudovirus SC05.8C11.2344 (envelope glycoprotein) (HIV-1)
# Test: cell-based or functional assay
Binder,neutralization IC50,neutralization IC80
B1,0.819 mg/L,2.69 mg/L
B2,0.527 mg/L,1.42 mg/L
B3,0.707 mg/L,2.44 mg/L
B4,0.512 mg/L,1.73 mg/L
B5,0.794 mg/L,2.73 mg/L
B6,0.411 mg/L,1.44 mg/L
B7,0.658 mg/L,2.28 mg/L
B8,0.428 mg/L,1.45 mg/L
B9,0.546 mg/L,1.85 mg/L
B10,0.914 mg/L,3.1 mg/L
B11,0.496 mg/L,1.69 mg/L
B12,0.501 mg/L,1.68 mg/L
B13,0.573 mg/L,1.94 mg/L
B14,0.81 mg/L,3.86 mg/L
B15,0.436 mg/L,1.51 mg/L
B16,0.456 mg/L,1.62 mg/L
B17,0.432 mg/L,1.48 mg/L
B18,0.449 mg/L,1.54 mg/L
